Results on 1 molecule are retold here after patent WO2019006280A1 (dated 2019).

This assay deals with T1, cell-surface CD33 on the CD33-positive AML cell line MV4-11 (UniProt P20138 18-364).
T1 construct: whole, on cells; Endogenous CD33 of the MV4-11 cell line; also called cell-surface expressed CD33; CD33-postive MV4-11 cells
The experiment in a line: flow cytometry on MV4-11 cells, binder at 10 ug/ml, PE anti-flag. For orientation: In flow cytometry, cells or beads pass a laser one at a time.

T1 sequence (P20138 18-364 limits assumed): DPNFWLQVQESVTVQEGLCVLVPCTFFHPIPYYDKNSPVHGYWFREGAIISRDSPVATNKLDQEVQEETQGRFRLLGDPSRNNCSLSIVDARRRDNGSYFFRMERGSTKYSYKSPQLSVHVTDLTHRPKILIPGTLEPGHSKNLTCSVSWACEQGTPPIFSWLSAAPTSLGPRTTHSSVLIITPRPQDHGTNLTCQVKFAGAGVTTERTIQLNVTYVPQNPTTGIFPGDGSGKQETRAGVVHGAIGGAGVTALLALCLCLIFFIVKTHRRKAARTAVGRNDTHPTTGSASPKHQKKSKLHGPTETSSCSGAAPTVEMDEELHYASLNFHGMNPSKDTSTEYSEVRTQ

B1: ml033-2 VH domain antibody (VHH)
VHH: EVQLVESGGGLVQPGGSLRLSCAASGFTFSSYGMSWVRQAPRKGLEWIGEINHSGSTNYNPSLKSRVTISRDNSKNTLYLQMNSLRAEDTATYYCARPLNYYYYYMDVWGKGTTVTVSS
notes: also called single domain antibody ml 033-2; m1033-2; not shown: His and Flag tags
With B1, the binding result is “binds”.
